Data from patent US20130209454A1.
Changes are numbered by the printed parent chain. Names and notes keep the numbering of the source.

Key:
Assay in all cases: cell-based or functional assay
[1] = molecular target: Env of HIV-1 strain 3103.v3.c10 (HIV-1)
[2] = molecular target: Env of HIV-1 strain 620345.c01 (HIV-1)
[3] = molecular target: Env of HIV-1 strain 6240_08_TA5_4622 (HIV-1)
[4] = molecular target: Env of HIV-1 strain 6545.v4.c1 (HIV-1)
[5] = molecular target: Env of HIV-1 strain AC10.0.29 (HIV-1)
[6] = molecular target: Env of HIV-1 strain BJOX009000.02.4 (HIV-1)
[7] = molecular target: Env of HIV-1 strain BJOX010000.06.2 (HIV-1)
[8] = molecular target: Env of HIV-1 strain C1080.c03 (HIV-1)
[9] = molecular target: Env of HIV-1 strain CAAN5342.A2 (HIV-1)
[10] = molecular target: Env of HIV-1 strain CNE53 (HIV-1)
[11] = molecular target: Env of HIV-1 strain Ce1176_A3 (HIV-1)
[12] = molecular target: Env of HIV-1 strain Ce704809221_1B3 (HIV-1)
[13] = molecular target: Env of HIV-1 strain Du172.17 (HIV-1)
[14] = molecular target: Env of HIV-1 strain P0402_c2_11 (HIV-1)
[15] = molecular target: Env of HIV-1 strain PVO.4 (HIV-1)
[16] = molecular target: Env of HIV-1 strain Q842.d12 (HIV-1)
[17] = molecular target: Env of HIV-1 strain T251-18 (HIV-1)
[18] = molecular target: Env of HIV-1 strain T255-34 (HIV-1)
[19] = molecular target: Env of HIV-1 strain T257-31 (HIV-1)
[20] = molecular target: Env of HIV-1 strain TRO.11 (HIV-1)
[21] = molecular target: Env of HIV-1 strain WEAU_d15_410_787 (HIV-1)
[22] = molecular target: Env of HIV-1 strain WITO4160.33 (HIV-1)
[23] = molecular target: Env of HIV-1 strain ZM109F.PB4 (HIV-1)
[24] = molecular target: Env of HIV-1 strain ZM197M.PB7 (HIV-1)
[25] = molecular target: Env of HIV-1 strain ZM233M.PB6 (HIV-1)
[26] = molecular target: HIV-1 Env of strain 1054_07_TC4_1499 (HIV-1)
[27] = molecular target: HIV-1 Env of strain 263-8 (HIV-1)
[28] = molecular target: HIV-1 Env of strain 6041.v3.c23 (HIV-1)
[29] = molecular target: HIV-1 Env of strain 6244_13_B5_4576 (HIV-1)
[30] = molecular target: HIV-1 Env of strain AC10.0.29 (HIV-1)
[31] = molecular target: HIV-1 Env of strain BJOX028000.10.3 (HIV-1)
[32] = molecular target: HIV-1 Env of strain CNE19 (HIV-1)
[33] = molecular target: HIV-1 Env of strain CNE8 (HIV-1)
[34] = molecular target: HIV-1 Env of strain Q461.e2 (HIV-1)
[35] = molecular target: HIV-1 Env of strain SC422661.8 (HIV-1)
[36] = molecular target: HIV-1 Env of strain T255-34 (HIV-1)

B1: NIH45-46^G54W (antibody, V domains shown)
VH: QVRLSQSGGQMKKPGESMRLSCRASGYEFLNCPINWIRLAPGRRPEWMGWLKPRWGAVNYARKFQGRVTMTRDVYSDTAFLELRSLTSDDTAVYFCTRGKYCTARDYYNWDFEHWGRGAPVTVSS
VL: EIVLTQSPATLSLSPGETAIISCRTSQSGSLAWYQQRPGQAPRLVIYSGSTRAAGIPDRFSGSRWGADYNLSISNLESGDFGVYYCQQYEFFGQGTKVQVDI
- IC80 [1]: 0.56 µg/mL
- IC80 [2]: > 50 µg/mL
- IC80 [3]: 0.603 µg/mL
- IC80 [4]: > 50 µg/mL
- IC80 [5]: 0.63 µg/mL
- IC80 [6]: 0.564 µg/mL
- IC80 [7]: 4.5 µg/mL
- IC80 [8]: 0.91 µg/mL
- IC80 [9]: 0.21 µg/mL
- IC80 [10]: 0.005 µg/mL
- IC80 [11]: 0.45 µg/mL
- IC80 [12]: 0.21 µg/mL
- IC80 [13]: 42.9 µg/mL
- IC80 [14]: 0.023 µg/mL
- IC80 [15]: 0.16 µg/mL
- IC80 [16]: 0.025 µg/mL
- IC80 [17]: 0.92 µg/mL
- IC80 [18]: 0.099 µg/mL
- IC80 [19]: 0.45 µg/mL
- IC80 [20]: 0.13 µg/mL
- IC80 [21]: 0.003 µg/mL
- IC80 [22]: 0.04 µg/mL
- IC80 [23]: 0.07 µg/mL
- IC80 [24]: 0.18 µg/mL
- IC80 [25]: 0.11 µg/mL
- IC50, pseudovirus neutralization [26]: 0.04 µg/mL
- IC50, pseudovirus neutralization [27]: 1 ng/mL
- IC50, pseudovirus neutralization [28]: 1 ng/mL
- IC50, pseudovirus neutralization [29]: 5 ng/mL
- IC50, pseudovirus neutralization [30]: 0.13 µg/mL
- IC50, pseudovirus neutralization [31]: 1 ng/mL
- IC50, pseudovirus neutralization [32]: 2 ng/mL
- IC50, pseudovirus neutralization [33]: 0.055 µg/mL
- IC50, pseudovirus neutralization [34]: 9 ng/mL
- IC50, pseudovirus neutralization [35]: 0.02 µg/mL
- IC50, pseudovirus neutralization [36]: 1 ng/mL

B2: NIH45-46^G54W(HC) S28Y(LC) (antibody, V domains shown)
VH: B1 VH
VL: B1 VL with S28Y
- IC80 [1]: 0.594 µg/mL
- IC80 [2]: > 50 µg/mL
- IC80 [3]: 0.623 µg/mL
- IC80 [4]: > 50 µg/mL
- IC80 [5]: 0.554 µg/mL
- IC80 [6]: 0.621 µg/mL
- IC80 [7]: 5.04 µg/mL
- IC80 [8]: 0.589 µg/mL
- IC80 [9]: 0.299 µg/mL
- IC80 [10]: 0.039 µg/mL
- IC80 [11]: 0.467 µg/mL
- IC80 [12]: 0.484 µg/mL
- IC80 [13]: 0.125 µg/mL
- IC80 [14]: 0.042 µg/mL
- IC80 [15]: 0.099 µg/mL
- IC80 [16]: 0.017 µg/mL
- IC80 [17]: 1.43 µg/mL
- IC80 [18]: 0.105 µg/mL
- IC80 [19]: 0.471 µg/mL
- IC80 [20]: 0.079 µg/mL
- IC80 [21]: 0.027 µg/mL
- IC80 [22]: 0.073 µg/mL
- IC80 [23]: 0.086 µg/mL
- IC80 [24]: 0.274 µg/mL
- IC80 [25]: 0.083 µg/mL
